The nature of this data set: soluble on expression in E. coli; label from the status in PepcDB or PDB records.
For “MGCMIQSFRCKSTQAMFEGECPQRFSAIQAVAERKLAQLEAAQTLDFLRSPPGNRLEKLAGDREGQWSIRINAQWRICFTWSDLDPADVEIVDYH”, the “soluble on expression in E. coli” value is on record as “not soluble”.

As for “MSLNALDPHDALPWIEETTALELSPSQRSAVTLVLASKVSIITGGPGVGKTTILKAILSVLQREKVSVALCAPTGRAAKRLTESTGIEAKTIHRLLEFDPQAFDFKRGRGNPLDASFVVVDETSMVDVVLMQKLVAAIPDHAAVVFVGDVDQLPSVGPGAVLADMISSEAIPTVRLTEIFRQAAESMIVVNAHRINQGDMPLTAEGEELSDFYVVKAASAEEIHDKVIQLVTERIPKRFGLDAVKDVQVLTPMNKGGVGVHALNAELQAKLNPASEPKVTRFGTTFAPGDKVIQTVNNYDKEVFNGDIGLIEAIDPEAEIATAFFFDHHRAEYDFNDLDELSLAYATSIHKSQGSEYPAVVIPLAMQHFTLLERNLIYTAVTRGRKLVVIVAEPKALTLAIKNCKSKRRLTGLVQRLRESGKQSWQNEGHHHHHH”, the “soluble on expression in E. coli” value is recorded as “soluble”.

Regarding “MNASLYQQYVQAKAEHPGKYARDLATLMGISEAELTHSRVGHDAKRLQSDARALLAALESVGEVKAITRNTYAVHEQVGRYENQHLNGHAGLILNPRALDLRLFLNQWASAFTLTEETRHGVRHSIQFFDHQGDALHKVYVTEQTDMSAWEALLAQFIIPENPALQLEPLSTPEAVEPTADDATVDSEWRAMTDVHQFFQLLKRNNLTRQQAFRAVGDDLAYQVDNNSLTQLLHIAQQDQNEIMIFVGNRGCVQIFTGLIEKVTPHNEWINVFNQRFTLHLIETAIAESWITRKPTKDGFVTSLELFAADGTQLAQLYGQRTEGQPEQNQWREQIARLINKDIAA”, the “soluble on expression in E. coli” value was “not soluble”.

As to “SNDLSQWSISKDSNLDSPWIEGIPGCGIPGAGSLVEHIDRQILVLQRDGRYIVGLLRSYDQYANLVLENTFERFVLNDSYCDEPLGVFIIRGENVALLGEVDGEKESQWLSHLHTVSLEDTKKTIRGKRQATKALLHSQPERVEWTFYDDAFF”, the “soluble on expression in E. coli” value is “soluble”.

Take “MSQTGEKGKFPDAAGYVGFANLPNQVHRKSVKKGFEFTLMVVGESGLGKSTLINSLFLTDLYPERYIPGAAEKIERTVQIEASTVEIEERGVKLRLTVVDTPGYGDAINSQDCFKTIIQYIDNQFERYLHDESGLNRRHIVDNRVHCCFYFISPFGHGLKPLDVEFMKAIHSKVNIVPVIAKADTLTLKERDRLKRRILDEISEHGIRIYQLPDADSDEDEEFKDFVPNRCIWSSLQFYQMHIIAITFIDIMFVFKKAAHVISTTIIMVKLNIKCQ”: the “soluble on expression in E. coli” value was “not soluble”.

In the case of “MGSENSALKSYTLREPPFTLPSGLAVYPAVLQDGKFASVFVYKRENEDKVNKAAKHLKTLRHPCLLRFLSCTVEADGIHLVTERVQPLEVALETLSSAEVCAGIYDILLALIFLHDRGHLTHNNVCLSSVFVSEDGHWKLGGMETVCKVSQATPEFLRSIQSIRDPASIPPEEMSPEFTTLPECHGHARDAFSFGTLVESLLTILNEQVSADVLSSFQQTLHSTLLNPIPKCRPALCTLLSHDFFRNDFLEVVNFLKSLTLKSEEEKTEFFKFLLDRVSCLSEELIASRLVPLLLNQLVFAEPVAVKSFLPYLLGPKKDHAQGETPCLLSPALFQSRVIPVLLQLFEVHEEHVRMVLLSHIEAYVEHFTQEQLKKVILPQVLLGLRDTSDSIVAITLHSLAVLVSLLGPEVVVGGERTKIFKRTAPSFTKNTDLSLEGDPFSQPIKFPINGLSDVKNTSEDSENFPSSSKKSEEWPDWSEPEEPENQTVNIQIWPREPCDDVKSQCTTLDVEESSWDDCEPSSLDTKVNPGGGITATKPVTSAEQKPIPALLSLTEESMPWKSSLPQKISLVQRGDDADQIEPPKVSSQERPLKVPSELGLGEEFTIQVKKKPVKDPEMDWFADMIPEIKPSAAFLILPELRTEMVPKKDDVSPVMQFSSKFAAAEITEGEAEGWEEEGELNWEDNNW”, the “soluble on expression in E. coli” value is listed as “soluble”.

Turning to “GPGSMLPQLLTENLCSLVEAEDRYAFSILWEFDENLNVVRDWFGKTIIRSRGALYYGDAQRMIDNPADTSDIAVSLRELMRLSKHFKAQREEDGALFLASQEFKFKVDNEHVNPTDMQVYQTFEANSMIEEWMLYANAAVATKVYESYPQWTLLRRHEPPAEGAFDTLNDALYSKLRVRLDDTTSLTLNKSLDKCEDPQDPYFNKLIRILTTRCLRQAQYFSSGG”, the “soluble on expression in E. coli” value is reported as “not soluble”.

Take “MSLGKYFGTDGVRGEANVELTPELAFKLGRFGGYVLSQHETERPKVFVARDTRISGEMLESALIAGLLSVGIEVYKLGVLATPGVSYLVRTEKASAGVMISASHNPALDNGIKFFGNDGFKLADDQELEIEALLDAPEDTLPRPSAEGLGTLVDYPEGLRKYEKFLVTTGTDLSGMTVALDTANGAASVSARDVFLDLNAEIAVIGEKPNGLNINDGVGSTRPEQLQELVKETGADLGLAFDGDSDRLIAVDETGEIVDGDRIMFIIGKYLSEKGLLAHNTIVTTVMSNLGFHKALDKQGINKAITAVGDRYVVEEMRSSGYNLGGEQSGHVIIMDYNTTGDGQLTAIQLAKVMKETGKSLSELAAEVTIYPQKLVNIRVENSMKERAMEVPAIANIIAKMEDEMAGNGRILVRPSGTEPLLRVMAEAPTDAEVDYYVDTIADVVRTEIGCDNEGHHHHHH”: the “soluble on expression in E. coli” value was “soluble”.

For “MSQSNTLTVQILDKEYCINCPDDERANLESAARYLDGKMREIRSSGKVIGADRVAVMAALNITHDLLHRKERLDQESSSTRERVRELLDRVDRALANPADAGEA”, the “soluble on expression in E. coli” value was “soluble”.

As to “MCNDTATPQLEELVTTVANQLMTVDAATSAEVSQRVLAYLVEQLGVDVSFLRHNDRDRRATRLVAEWPPRLNIPDPDPLRLIYFADADPVFALCEHAKEPLVFRPEPATEDYQRLIEEARGVPVTSAAAVPLVSGEITTGLLGFIKFGDRKWLEHHHHHH”, the “soluble on expression in E. coli” value is given as “not soluble”.

Regarding “MFNFEKFWQHFNDEMRARFNEVAYNAWFKNTKPISYNQKTHELKIQVQNPVAKGYWEKNLSSQLIQSAYGYAGVELLPVFQISEDSDTPERIVTPEPQHNLQTTPTRAPQREFAKDLKLNEKYTFDNFVQGEGNKLAAGAALAVADSPGSFYNPLFIFGGVGLGKTHLMQAIGHQMLVERPNAKVVYIQSETFVNDFINSIKNKTQDKFREKYRTCDLLLVDDIQFFAKKEGIQEEFFHTFETLYNDQKQIVMTSDRLPTEIPDLSERLVSRFTWGLQVEITPPDLETRIAILRRKAEAEGLTIDDDTLDYIASQVDTNIRELEGALVKVQAYATIEKADIDINLAREALVDLKLVQKNRGLQIPKIQEVVANYFQTSTAELKGKKRVRQIVIPRQIAMYLSRELTDASLPKIGQEFGGKDHTTVMHAYDKIDKQMKTDADIKTAVFDLKQMLEHLEHHHHHH”, the “soluble on expression in E. coli” value is “not soluble”.

Regarding “GAMSSKNEWRKSAIANTLLYLRLKNIYVSADDFVEEQNVYVLPKNLLKKFIEISDVKIQVAAFIYGMSAKDHPKVKEIKTVVLVPQLGHVGSVQISNIPDIGDLPDTEGLELLGWIHTQTEELKFMAASEVATHSKLFADKKRDCIDISIFSTPGSVSLSAYNLTDEGYQWGEENKDIMNVLSEGFEPTFSTHAQLLLSDRITGNFIIPSGNVWNYTFMGTAFNQEGDYNFKYGIPLEFYNEMHRPVHFLQFSE”, the “soluble on expression in E. coli” value is “soluble”.

“MEGEKGSKTRKGDALAREKLLEIAEKIYNQFEEEVVPSVSLPSRTKANLEYSDESDVWVYGDRESERSAKTVKGAFQLLKTTYATDFLINEHLARNRGSTLRELYYISEGWDYAKFKEQGESDRLIEDLEILTSLQREYFHMRPEEDGATMFGPIEITEQTKRGERNIHCQKDVGEGGYQIPFNVENIEFQKHDASMIIAIETGGMYARLMENGFDEAYNAILVHLKGQPARSTRRIIKRMNEELGIPVAVFTDGDPWSYRIYASVAYGAIKSAHLSEFMATPAAKFLGLQPSDIVEYELSTDKLTEQDVSALRSELSDPRFESDYWKEQIQLQLDIGKKAEQQAFAGKGLDFVTEVYLPNRLKEMGMI”: the “soluble on expression in E. coli” value was “soluble”.

For “MGSDKIHHHHHHGPASGRVEMKGESDSLSVRHGQENALSVSDEYPEGYVPVPGIRYQANYLTGNPERLDVKAALRNVRPLKLSQLGSQLDFMVFKDVKGGIFRLIPIEEGCLGVGIGGIWLLDGNLKMIRMLFRNDVDITEENGFTNFQTKRYINPDYYEKSSRTLIGVLYDQRDKKNPKSFVRLSLKDLLSASRPLTPDDIHKRAGISGNYLLGMADGYATWTRFTNDVYTFNLRGDTLCHFTIGEKVNYPPRGNGSYRSGEQATVYHYKGCPMIIMPYGNTVYRMKDASTLEPVYELDFGTLHRATGEEVVGGADVDNAYFLSDWVETDSYVFMHVEKGYDCPYARDKKQVTLYSLIYDKRSKAFFSLPQAEKTVHPCPEPDLPDGIPFWPRKGFSEEQLATFTTGWKLSKSSPEVFKRIPALQGTEKETTSLIITLK”, the “soluble on expression in E. coli” value was “not soluble”.

In the case of “MKEEEKTRLVIVQGPTASGKSALALELAERIGGEIVNADSMQVYRGMDIGTAKPSQEERRRVPHHLYDIVDPKVNFTAADFREHASRAIADIERRGKRVILVGGTGLYIRILTQGLVASPGGDDNIRRELEDQAHGEGLESLHRRLAAVDPVAAARLHPNDGVRIVRALEVFLLTGRPLSAFQEAHRFADEPYRCLKLGITVERELLYRRVEERVDRMIAEGLVEEVRGLLSAGYPATLKAMGSIGYREICAHLAGEFSLDEAMRLIKQNTRQYAKRQMTWFRRDSEIIWVEYPGKFDSILSTVMGFYHLEHHHHHH”, the “soluble on expression in E. coli” value is reported as “soluble”.

With “MSLAHEMIGTQIVTERLVALLESGTEKVLLIDSRPFVEYNTSHILEAININCSKLMKRRLQQDKVLITELIQHSAKHKVDIDCSQKVVVYDQSSQDVASLSSDCFLTVLLGKLEKSFNSVHLLAGGFAEFSRCFPGLCEGKSTLVPTCISQPCLPVANIGPTRILPNLYLGCQRDVLNKELMQQNGIGYVLNASNTCPKPDFIPESHFLRVPVNDSFCEKILPWLDKSVDFIEKAKASNGCVLVHCLAGISRSATIAIAYIMKRMDMSLDEAYRFVKEKRPTISPNFNFLGQLLDYEKKIKNQTEGHHHHHH”, the “soluble on expression in E. coli” value is reported as “soluble”.

On to “MTPEAAYQNLLEFQRETAYLASLGALAAWDQRTMIPKKGHEHRARQMAALARLLHQRMTDPRIGEWLEKVEGSPLVQDPLSDAAVNVREWRQAYERARAIPERLAVELAQAESEAESFWEEARPRDDWRGFLPYLKRVYALTKEKAEVLFALPPAPGDPPYGELYDALLDGYEPGMRARELLPLFAELKEGLKGLLDRILGSGKRPDTSILHRPYPVEAQRRFALELLSACGYDLEAGRLDPTAHPFEIAIGPGDVRITTRYYEDFFNAGIFGTLHEMGHALYEQGLPKEHWGTPRGDAVSLGVHESQSRTWENLVGRSLGFWERFFPRAREVFASLGDVSLEDFHFAVNAVEPSLIRVEADEVTYNLHILVRLELELALFRGELSPEDLPEAWAEKYRDHLGVAPKDYKDGVMQDVHWAGGLFGYFPTYTLGNLYAAQFFQKAEAELGPLEPRFARGEFQPFLDWTRARIHAEGSRFRPRVLVERVTGEAPSARPFLAYLEKKYAALYG”, for which the “soluble on expression in E. coli” value is reported as “soluble”.

As to “MSRKRTENGSESGPATSHVPVDRFGFLKQEHANSPERFSKSKTTSSTDHDREERKVRKWRKMIGVGGSDWKHYVRRKPNVVRRRIRKGIPDCLRGLVWQLISGSRDLLLMNPGVYEQLVIYETSASELDIIRDISRTFPSHVFFQKRHGPGQRSLYNVLKAYSVYDRDVGYVQGMGFIAGLLLLYMSEEDAFWLLVALLKGAVHAPMEGLYHAGLPLVQQYLFQLESLVKELIPKLGEHFTQEMINPSMYASQWFITVFSYSFPFPLALRIWDVFLSEGVKIVFKVGLALLKYCQDELVSKVTV”, the “soluble on expression in E. coli” value is “not soluble”.

For the origin of these results see the DeepSol protein solubility set.
